Measurements reported in paper doi:10.1101/2023.03.23.533938 (bioRxiv, 2023).
Changes are numbered by the printed parent chain.

B1: Swi5 (natural protein)
chain: MEKSQLESRVHLLEQQKEQLESSLQDALAKLKNRDAKQTVQKHIDLLHTYNEIRDIALGMIGKVAEHEKCTSVELFDRFGVNGSE
B2: Swi5-Sfr1 phosphomimetic mutant complex (complex)
chain 1: MSQTINSELNENATSQCKEDLKVDLSESDLRDSQGQLGIENPPKCNNSGNHSDNLGFIEQSETVHPENEKALDPDLRDTKIHTSLPITTPFSKKRAREAKNILLKPFKDPLRQTADPQVADTNLKPSLAVTNLNSDETNTSSEPVTSPLRTTPNSIKRQKRLFKDPISNCLNPKSDPEITQLLSRRLKLEKEVRNLQEQLITAETARKVEAKNEDKDLQTLIQKWKNAAQQAAEVLFKPMAERIRLAGGVTQSFRIEEGENKGQIQEVRTEFTMSMFLNQFGVPVHLMSFDEENGDWKS
chain 2: B1 chain
B3: Rad51 (natural protein)
chain: MADTEVEMQVSAADTNNNENGQAQSNYEYDVNVQDEEDEAAAGPMPLQMLEGNGITASDIKKIHEAGYYTVESIAYTPKRQLLLIKGISEAKADKLLGEASKLVPMGFTTATEYHIRRSELITITTGSKQLDTLLQGGVETGSITELFGEFRTGKSQICHTLAVTCQLPIDMGGGEGKCLYIDTEGTFRPVRLLAVADRYGLNGEEVLDNVAYARAYNADHQLELLQQAANMMSESRFSLLVVDSCTALYRTDFSGRGELSARQMHLARFMRTLQRLADEFGIAVVITNQVVAQVDGISFNPDPKKPIGGNILAHSSTTRLSLRKGRGEQRICKIYDSPCLPESEAIFAINSDGVGDPKEIIAPV

Experiments:
Sfr1, wild type = molecular target: T1, Sfr1, wild type (S. pombe, UniProt Q9USV1 1-299); experiment: SEC
T1 sequence: B2 chain 1 with D24S, D73T, D109S, D116S, D165S

Rad51 = molecular target: B3; experiment: pull-down
[1] = molecular target: T2, Swi5-Sfr1 complex, wild type (S. pombe, UniProt Q9USV1;Q9UUB7); experiment: pull-down
T2 sequence 1: B2 chain 1 with D24S, D73T, D109S, D116S, D165S
T2 sequence 2: B1 chain

B1
binding result (Sfr1, wild type): binds

B2
fold reduction in co-precipitation with Rad51 against wild type (Rad51): ~5 fold

B3
binding result [1]: binds
